Ends that are not written are not given here.

The source of these data is patent publication US20200181677A1 (REGENTS OF THE UNIVERSITY OF MINNESOTA, published 2020).

The chains are these.
B1: peptide #6 (Myelin Basic Protein), alanine-substituted, in PKCα FRET sensor (peptide, not shown: large carriers; small tags and cut ends)
peptide: ASQKRPAQRH
notes: also called p6
B2: peptide #11 (Optimized PKCβ Sub.), alanine-substituted, in PKCα FRET sensor (peptide)
peptide: FKLKRKGAFKKFA
modifications: also: fused to PKCα catalytic domain via 10 nm ER/K linker in FRET sensor
notes: Ala form in the FRET sensor, tethered to the PKCα catalytic domain by the 10 nm ER/K FRET linker; also called p11
B3: peptide #10 (Optimized PKA Sub.), alanine-substituted, in PKCα FRET sensor (peptide, not shown: large carriers; small tags and cut ends)
peptide: RRRRAIIFI
notes: also called p10

The test deals with T1, human PKCα catalytic domain (human, UniProt P17252 336-672, limits assumed).
T1 construct: domain: catalytic domain; For activity assays the catalytic domain was isolated by TEV cleavage; also called catalytic domain of PKCα; PKC catalytic domain
Kind of test: time-resolved FRET (TCSPC) of eGFP/mCherry peptide-catalytic domain sensor.
Take B1: the “Mol Fraction Bound” value was 0.08 mol fraction and the “Mol Fraction Unbound” value turned out to be 0.92 mol fraction.

For B2, the “Mol Fraction Bound” value stood at 0.15 mol fraction and the “Mol Fraction Unbound” value amounted to 0.85 mol fraction.

For B3, the “Mol Fraction Bound” value stood at 0.16 mol fraction and the “Mol Fraction Unbound” value was determined as 0.84 mol fraction.
